Measured values as given in article PMC10308451.

Molecular target: T1, EhDbr1 (RNA lariat debranching enzyme) (Entamoeba histolytica, UniProt C4M1P9 1-354)
T1 sequence: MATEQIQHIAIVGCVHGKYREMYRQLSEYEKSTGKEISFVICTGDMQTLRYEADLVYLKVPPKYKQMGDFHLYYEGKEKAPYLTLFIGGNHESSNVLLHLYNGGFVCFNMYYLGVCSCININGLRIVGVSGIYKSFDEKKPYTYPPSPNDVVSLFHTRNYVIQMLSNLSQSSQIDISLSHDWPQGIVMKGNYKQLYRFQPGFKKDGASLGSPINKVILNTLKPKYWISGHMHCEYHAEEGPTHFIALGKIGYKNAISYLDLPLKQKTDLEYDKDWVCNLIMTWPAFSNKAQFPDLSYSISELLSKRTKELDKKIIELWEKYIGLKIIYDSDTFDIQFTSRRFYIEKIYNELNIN
Experiment: X-ray crystallography

GUGUG (ssRNA, 5'-terminal phosphorothioate) [PS-bRNA-1 5' product (hydrolyzed 2'-5' fragment, 5'-PS-GUGUG-3')]
binding result: binds
